Source: US20080311034A1 (published 2008)

B1: CHO-CNTO 860 I332E (antibody)
heavy: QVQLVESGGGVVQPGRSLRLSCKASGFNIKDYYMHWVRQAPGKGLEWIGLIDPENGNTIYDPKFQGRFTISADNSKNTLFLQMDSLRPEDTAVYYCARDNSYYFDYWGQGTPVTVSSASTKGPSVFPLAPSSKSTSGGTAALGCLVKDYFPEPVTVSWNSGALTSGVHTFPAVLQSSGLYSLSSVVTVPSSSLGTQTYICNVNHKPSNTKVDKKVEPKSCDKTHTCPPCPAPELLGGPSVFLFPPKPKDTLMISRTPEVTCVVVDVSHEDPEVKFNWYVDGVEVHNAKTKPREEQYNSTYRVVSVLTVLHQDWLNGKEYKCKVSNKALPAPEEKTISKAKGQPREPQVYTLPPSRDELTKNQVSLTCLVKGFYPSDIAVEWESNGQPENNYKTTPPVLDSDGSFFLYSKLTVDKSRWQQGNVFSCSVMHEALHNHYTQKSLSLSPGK
light: DIQMTQSPSSLSASVGDRVTITCKASQDIRKYLNWYQQKPGKAPKLLIYYATSLADGVPSRFSGSGSGTDYTFTISSLQPEDIATYYCLQHGESPYTFGQGTKLEITRTVAAPSVFIFPPSDEQLKSGTASVVCLLNNFYPREAKVQWKVDNALQSGNSQESVTEQDSKDSTYSLSSTLTLSKADYEKHKVYACEVTHQGLSSPVTKSFNRGEC
modifications: N-linked glycan at Asn297 of the heavy chain (CHO-type, highly fucosylated); not carried by the letters
notes: IgG1/kappa Fc variant; transiently expressed in CHO cells (p4157/p4146); also called I332E (CHO cell-derived); I332E from CHO cells; copies: 2 + 2
B2: YB2/0-CNTO 860 WT (antibody, human IgG1, kappa)
heavy: not shown
light: B1 light
modifications: Heavy chain N297 carries the YB2/0-type N-linked glycan (40-60% fucosylated); not carried by the letters.
notes: Anti-human tissue factor human IgG1/kappa; stably expressed in rat YB2/0 cells (p2401/p2402; YB2/0 Abs typically 40-60% fucosylated), purified by protein A; also called WT (YB2/0 cell-derived); WT from YB2/0 cells; copies: 2 + 2
B3: YB2/0-CNTO 860 A330I (antibody, IgG1)
heavy: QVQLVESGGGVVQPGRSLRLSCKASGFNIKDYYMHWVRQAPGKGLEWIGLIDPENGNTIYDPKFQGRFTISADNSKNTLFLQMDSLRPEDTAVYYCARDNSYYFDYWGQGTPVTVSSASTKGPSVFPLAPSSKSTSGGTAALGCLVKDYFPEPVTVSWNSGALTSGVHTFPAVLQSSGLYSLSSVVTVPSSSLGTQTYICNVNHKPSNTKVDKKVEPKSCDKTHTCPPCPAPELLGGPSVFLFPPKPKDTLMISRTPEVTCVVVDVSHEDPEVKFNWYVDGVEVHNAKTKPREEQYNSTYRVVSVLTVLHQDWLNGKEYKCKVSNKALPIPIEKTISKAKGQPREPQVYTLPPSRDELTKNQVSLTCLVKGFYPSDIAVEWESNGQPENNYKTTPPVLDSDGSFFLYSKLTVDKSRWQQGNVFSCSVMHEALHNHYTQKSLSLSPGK
light: B1 light
modifications: N-linked glycan at heavy chain Asn297 (YB2/0-type, low fucose); not carried by the letters
notes: IgG1/kappa Fc variant; stably expressed in YB2/0 cells (p4177/p2402); EU numbering; also called A330I (YB2/0 cell-derived); A330I mutant expressed in YB2/0 cells; copies: 2 + 2
B4: YB2/0-CNTO 860 A330I/I332E (antibody, human IgG1, kappa)
heavy: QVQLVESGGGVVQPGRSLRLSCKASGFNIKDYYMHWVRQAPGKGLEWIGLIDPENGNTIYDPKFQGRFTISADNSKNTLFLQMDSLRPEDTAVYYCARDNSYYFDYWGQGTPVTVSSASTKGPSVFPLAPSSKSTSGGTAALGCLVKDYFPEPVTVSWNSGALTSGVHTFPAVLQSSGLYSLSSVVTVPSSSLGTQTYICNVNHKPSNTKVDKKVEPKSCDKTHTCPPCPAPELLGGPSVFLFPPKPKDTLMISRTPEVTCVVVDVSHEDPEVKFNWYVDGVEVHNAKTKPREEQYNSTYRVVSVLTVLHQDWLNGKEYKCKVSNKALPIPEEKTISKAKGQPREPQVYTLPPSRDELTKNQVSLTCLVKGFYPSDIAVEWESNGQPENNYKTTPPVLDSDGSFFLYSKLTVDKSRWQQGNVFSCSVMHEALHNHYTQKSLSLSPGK
light: B1 light
modifications: N-linked glycan at heavy chain Asn297 (YB2/0-type, low fucose); not carried by the letters
notes: IgG1/kappa Fc variant; stably expressed in YB2/0 cells (p4178/p2402); EU numbering; also called A330I/I332E (YB2/0 cell-derived); A330I/I332E from YB2/0 cells; copies: 2 + 2
B5: CHO-CNTO 860 I332E/A330I (antibody, human IgG1, kappa)
heavy: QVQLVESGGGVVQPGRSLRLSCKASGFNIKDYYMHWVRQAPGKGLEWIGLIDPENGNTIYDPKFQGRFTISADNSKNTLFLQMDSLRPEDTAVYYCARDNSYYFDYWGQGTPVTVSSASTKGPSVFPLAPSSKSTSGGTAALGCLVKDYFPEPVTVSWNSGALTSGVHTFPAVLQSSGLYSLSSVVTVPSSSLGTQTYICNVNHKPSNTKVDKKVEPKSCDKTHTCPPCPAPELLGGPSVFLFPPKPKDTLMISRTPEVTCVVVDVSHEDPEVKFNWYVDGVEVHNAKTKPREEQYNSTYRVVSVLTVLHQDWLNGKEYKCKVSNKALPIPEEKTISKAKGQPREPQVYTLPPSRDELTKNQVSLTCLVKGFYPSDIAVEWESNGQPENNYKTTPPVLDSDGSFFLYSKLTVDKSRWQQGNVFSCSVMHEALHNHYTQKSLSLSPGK
light: B1 light
modifications: Heavy chain N297 carries the CHO-type N-linked glycan (about 95% fucosylated); not carried by the letters.
notes: IgG1/kappa Fc variant; transiently expressed in CHO cells (p4185/p4146); EU numbering; also called A330I/I332E (CHO cell-derived); A330I/I332E variant from CHO cells; copies: 2 + 2
B6: YB2/0-CNTO 860 I332E (antibody, human IgG1, kappa)
heavy: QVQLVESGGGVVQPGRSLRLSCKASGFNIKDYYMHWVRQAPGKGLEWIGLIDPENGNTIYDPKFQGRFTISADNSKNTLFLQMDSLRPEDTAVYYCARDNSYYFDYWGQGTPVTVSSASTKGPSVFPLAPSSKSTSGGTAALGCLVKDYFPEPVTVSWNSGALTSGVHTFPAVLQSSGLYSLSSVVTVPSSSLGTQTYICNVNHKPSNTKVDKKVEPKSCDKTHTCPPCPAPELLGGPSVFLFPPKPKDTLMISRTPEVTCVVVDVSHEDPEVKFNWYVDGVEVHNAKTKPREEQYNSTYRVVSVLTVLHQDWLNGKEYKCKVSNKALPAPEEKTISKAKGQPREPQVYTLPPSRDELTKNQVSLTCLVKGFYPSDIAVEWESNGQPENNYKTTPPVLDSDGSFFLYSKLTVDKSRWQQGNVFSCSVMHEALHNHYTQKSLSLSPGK
light: B1 light
modifications: Heavy chain N297 carries the YB2/0-type low-fucose N-linked glycan; not carried by the letters.
notes: IgG1/kappa Fc variant; stably expressed in YB2/0 cells (p4148/p2402), low-fucose glycan; EU numbering; also called I332E (YB2/0 cell-derived); I332E from YB2/0 cells; copies: 2 + 2

Key:
[1] = biological target: T1, recombinant human His-tagged FcγRIIIa (extracellular domain made at Centocor) (human, UniProt P08637 17-208); assay: ELISA
T1 construct: extracellular domain; also called CD16a; recombinant, soluble, human FcγRIIIa
Description: (§1) FcγRI (CD64) ELISA —50 μl of a 1 μg/ml solution of recombinant human His-tagged FcγRI (extracellular domain, R&D Systems #1257-FC-050) in ELISA buffer (PBS, pH 7.4, 4 mg/ml BSA, 0.01% Tween-20) was added to each well of HisGrab 96 well plates (Pierce #15142) (Powers G., Notebook 9006, pp. 166-168, 180-181). The plate was incubated with shaking for 3 hours. The plates were washed 3× with 300 μl of wash buffer (PBS, 0.01% Tween-20) on a plate washer. Serial dilutions of the CNTO860 antibody Fc-variant samples were made in ELISA buffer and 50 μl per well of each titration were added in duplicate to the FcγRI-coated plates. The plates were incubated with shaking for 1 hour. The plates were washed 3× with 300 μl of wash buffer on a plate washer. 50 μl of a 1:10,000 dilution of HRP-labeled goat F(ab′)₂ anti-human IgG F(ab′)₂ (Jackson Immunoresearch # 109-036-097) in ELISA buffer was added to each well. The plates were incubated with shaking for 30 minutes. The plates were washed 3× with 300 μl of wash buffer on the plate washer. 50 μl per well TMB substrate (RDI #RDI-TMBSU-1L) was added to each well and developed for 5 minutes. The reaction was stopped by adding 100 μl 0.2 N sulfuric acid. The plates were read at OD450 on an Envision plate reader.
(§2) FcγRIIIa (CD16a) ELISA—A human FcγRIIIa binding assay was done in ELISA format similar to the assay for FcγRI above. 50 μl of a 2 μg/ml solution of recombinant human His-tagged FcγRIIIa (extracellular domain made at Centocor) in ELISA buffer (PBS, 4 mg/ml BSA, 0.01% Tween-20) was added to each well of HisGrab 96 well plates (Pierce #15142) (Powers G., Notebook 10378, 19-23). The plate was incubated for 3 hours at room temp. The plates were blocked with 200 μl of Starting Block (Pierce #15142) for 30 min, and then washed 3× with 300 μl of wash buffer (PBS, 0.01% Tween-20) on a plate washer. Serial dilutions of the CNTO 860 test samples were made in Starting Block buffer and 50 μl per well of each titration were added in duplicate to the FcγRIIIa-coated plates. The plates were incubated for 1 hour. The plates were washed 3× with 300 μl of wash buffer on a plate washer. 50 μl of a 1:10,000 dilution of HRP-labeled goat F(ab′)2 anti-human IgG F(ab′)2 (Jackson Immunoresearch # 109-036-097) in Starting Block buffer was added to each well. The plates were incubated for 30 minutes.

[2] = biological target: FcγRIIIa on NK cells of human PBMC (human, UniProt P08637 17-254); assay: cell-based or functional assay
[3] = biological target: T2, recombinant human His-tagged FcγRI (extracellular domain, R&D Systems #1257-FC-050) (human, UniProt P12314 16-292); assay: ELISA
T2 construct: extracellular domain; Bought; also called CD64; recombinant, soluble, human FcγRI
Description: as §1, §2

[4] = biological target: T3, recombinant human His-tagged FcγRIIa (R&D Systems #1330-CD-050) (human, UniProt P12318 36-218, limits assumed); assay: AlphaScreen
T3 construct: Bought; also called CD32a; recombinant, soluble, human FcγRIIa
T3 sequence (looked up): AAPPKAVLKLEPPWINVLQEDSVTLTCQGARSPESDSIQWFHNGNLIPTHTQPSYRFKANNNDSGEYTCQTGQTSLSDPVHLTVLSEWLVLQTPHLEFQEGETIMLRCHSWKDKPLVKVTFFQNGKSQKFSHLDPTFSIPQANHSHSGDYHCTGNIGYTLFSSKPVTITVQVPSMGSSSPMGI
Description: (§3) FcγRIIa (CD32a) AlphaScreen—Nickel acceptor beads (Perkin Elmer #6760619C) were diluted 1:50 in assay buffer (PBS, pH 7.4, 4 mg/ml BSA, 0.01% Tween-20), and 27.5 μl were added to each well of a Nunc V-bottom polypropylene plate (VWR # 62409-108) (Powers G., Notebook 9006, pp. 169-175, 182-185). A 2.0 μg/ml solution of recombinant human His-tagged FcγRIIa (R&D Systems #1330-CD-050) was prepared in assay buffer and 27.5 μl added to each well of a separate Nunc V bottom polypropylene plate. Titrations of test Abs were prepared in the Nunc V bottom polypropylene plate starting at 30 μg/ml. A 2 μg/ml solution of biotinylated goat F(ab′)₂ anti-human IgG F(ab′)₂ (Jackson Immunoresearch #109-066-097) was prepared in assay buffer and 27.5 μl added to each well of another Nunc V bottom polypropylene plate. A 1:50 dilution of streptavidin donor beads (PerkinElmer # 6760002) was prepared in assay buffer and 27.5 μl added to each well of another Nunc V bottom polypropylene plate. A volume of 5 μl of each reagent was added to the corresponding quadrants of a low-volume, non-binding white 384-well plate (Corning # 3673) in the following order: acceptor beads, FcγRIIa, test Ab, biotinylated anti-human IgG F(ab′)₂, and streptavidin donor beads. The plates were incubated for 30 minutes with shaking and the O.D.s determined using an Envision plate reader.
(§4) FcγRIIb (CD32b) AlphaScreen—The assay was performed as described above for FcγRIIa except that FcγRIIa was replaced with FcγRIIb (R&D Systems #1875-CD-050).

[5] = biological target: T4, recombinant human FcγRIIb (R&D Systems #1875-CD-050) (human, UniProt P31994 46-217, limits assumed); assay: AlphaScreen
T4 construct: Bought; also called CD32b; recombinant, soluble, human FcγRIIb
T4 sequence (looked up): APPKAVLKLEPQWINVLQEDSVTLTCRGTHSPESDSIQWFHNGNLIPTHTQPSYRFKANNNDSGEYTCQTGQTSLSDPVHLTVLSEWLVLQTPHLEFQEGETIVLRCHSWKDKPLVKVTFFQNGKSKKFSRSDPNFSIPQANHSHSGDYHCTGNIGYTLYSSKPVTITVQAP
Description: as §3, §4

FcγRIIIa on NK cells of human PBMC, sequence (P08637 17-254): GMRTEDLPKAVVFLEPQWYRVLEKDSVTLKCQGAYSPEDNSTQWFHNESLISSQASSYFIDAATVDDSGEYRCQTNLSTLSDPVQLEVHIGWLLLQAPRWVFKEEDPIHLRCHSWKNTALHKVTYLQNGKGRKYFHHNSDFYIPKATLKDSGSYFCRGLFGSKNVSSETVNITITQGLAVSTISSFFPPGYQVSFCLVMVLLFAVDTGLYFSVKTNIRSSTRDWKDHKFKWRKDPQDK
T1 sequence (P08637 17-208): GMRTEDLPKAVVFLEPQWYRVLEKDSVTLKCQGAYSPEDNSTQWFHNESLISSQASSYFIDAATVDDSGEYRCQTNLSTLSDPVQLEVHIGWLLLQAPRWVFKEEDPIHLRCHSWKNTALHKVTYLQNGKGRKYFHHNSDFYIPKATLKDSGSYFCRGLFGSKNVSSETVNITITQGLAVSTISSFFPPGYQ
T2 sequence (P12314 16-292): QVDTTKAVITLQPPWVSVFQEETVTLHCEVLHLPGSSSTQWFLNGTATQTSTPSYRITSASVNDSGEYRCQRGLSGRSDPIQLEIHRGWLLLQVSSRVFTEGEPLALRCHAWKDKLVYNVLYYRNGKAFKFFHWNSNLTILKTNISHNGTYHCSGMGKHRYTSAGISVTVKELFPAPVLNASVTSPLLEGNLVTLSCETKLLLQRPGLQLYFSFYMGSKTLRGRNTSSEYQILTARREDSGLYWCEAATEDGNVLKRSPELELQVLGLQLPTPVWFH

| fold better binding than WT from CHO cells [1] [fold] | fold better binding than WT from CHO [1] [fold] | fold better binding than WT from YB2/0 cells [1] [fold] | other results | Binder |
| --- | --- | --- | --- | --- |
| 6 |  |  | fold potency in ADCC against CHO-CNTO 860 WT [2]: ~7 fold | B1 |
|  | ~3 |  |  | B2 |
|  |  |  | fold reduced binding [3]: < 2 fold; fold reduced binding [4]: 8 fold; fold reduced binding [5]: 500 fold | B3 |
|  |  | 6 |  | B4 |
| ~8 |  |  |  | B5 |
|  | ~30 | ~10 | fold change of the concentration for 25% lysis against WT CNTO860 from CHO host cells [2]: ~100 fold; fold potency in ADCC against YB2/0-CNTO 860 WT [2]: ~8 fold | B6 |
